This experiment deals with 3×HA-xtMc1r (Xenopus tropicalis melanocortin 1 receptor) (Xenopus tropicalis).

As to ACTH peptide, the EC50 of ACTH in the cAMP luciferase reporter assay (pCRE-luc, HEK293T), xtMc1r:xtMrap1 plasmid ratios 1:0 to 1:6; EC50 from 1.171 × 10^−9 M (1:3) to 7.006 × 10^−9 M (1:0) came out at 7.01e-09 M and the EC50 of ACTH in the cAMP luciferase reporter assay (pCRE-luc, HEK293T), xtMc1r:xtMrap2 plasmid ratios 1:0 to 1:6; EC50 from 1.513 × 10^−9 M (1:6) to 7.150 × 10^−9 M (1:0) worked out at 7.15e-09 M.

Consider “alpha melanocyte-stimulating hormone (α-MSH) peptide”, for which the EC50 of α-MSH in the cAMP luciferase reporter assay (pCRE-luc, HEK293T), xtMc1r:xtMrap1 plasmid ratios 1:0 to 1:6; EC50 from 6.906×10^−10 M (1:6) to 2.806 × 10^−9 M (1:0) was determined as 2.81e-09 M and the EC50 of α-MSH in the cAMP luciferase reporter assay (pCRE-luc, HEK293T), xtMc1r:xtMrap2 plasmid ratios 1:0 to 1:6; EC50 from 7.550 × 10^−10 M (1:3) to 2.036 × 10^−9 M (1:0) came to 2.04e-09 M.

These data come from article PMC9251544.
